How the values were obtained:
[1] = molecular target: T1, FOLR1-mycHis (human, UniProt P15328 25-233); experiment: surface plasmon resonance as in Example 29
T1 construct: Secreted from CHO/DG44 cells, purified on Ni-NTA; Residues 1-233 include the native signal peptide; also called non-reducing FOLR1-mycHis; recombinant protein having myc and His tag at the C-terminus of FOLR1 (1-233 amino acids); not shown: myc and His tag at the C-terminus
Protocol: (§1) The affinities of ChRA15-7Acc antibody and MORAb-003 antibody for FOLR1 were measured by a surface plasmon resonance method. The measurement was carried out in the same manner as in Example 16, except that a Human Antibody Capture Kit (GE Healthcare) was immobilized onto the CM5 chip by amine coupling and FOLR1-mycHis prepared by five-step dilution (12.3, 37, 111, 333, 1000 ng/mL) was applied as an analyte.
(§2) Affinities of HV7LV3-CDRH3-Cys101 modified antibodies for FOLR1 were measured by the surface plasmon resonance method in the same manner as in Example 29.

[2] = molecular target: T1, FOLR1-mycHis; experiment: SPR as in Example 29, antibody captured, FOLR1-mycHis as analyte
Protocol: as §1, §2

T1 sequence (P15328 25-233): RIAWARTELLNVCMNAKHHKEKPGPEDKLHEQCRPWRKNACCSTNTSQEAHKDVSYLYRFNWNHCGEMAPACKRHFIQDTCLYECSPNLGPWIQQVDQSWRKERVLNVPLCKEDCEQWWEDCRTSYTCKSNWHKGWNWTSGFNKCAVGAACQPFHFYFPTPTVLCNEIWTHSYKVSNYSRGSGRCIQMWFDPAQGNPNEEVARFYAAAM

Binder | affinity as percent of the affinity of ChRA15-7Acc antibody [1] | affinity as percent of the affinity of ChRA15-7Acc antibody [2] | affinity as percent of the affinity of ChRA15-7Acc [2]
HV7LV3-CDRH3-Cys101 modified antibody C101F (antibody, human IgG1, V domains shown, Human IgG1 kappa constant regions of pKANTEX93; transiently made in FUT8 double-knockout CHO-K1 cells; also called antibody in which Cys101 was modified with Phe) VH: EVQLVESGGGLVQPGGSLRLSCAASGFTFTDFYMNWVRQPPGKAPEWLGFIRNKANGYTTEFNPSVKGRFTISRDNSKNSLYLQMNSLKTEDTATYYCARFLYGYAYYYVMDAWGQGTLVTVSS VL: DIQMTQSPSSLSASLGDRVTITCRTSEDIFRNLAWYQQKPGKAPKLLIYDTNRLADGVPSRFSGSGSGTDYTLTISSLQPEDFATYFCQQYDNYPLTFGQGTKLEIK | ≥ 50 % of the affinity of ChRA15-7Acc antibody | 80% | –
modified humanized RA15-7 antibody HV10LV4 (antibody, human IgG1, V domains shown, Human IgG1 kappa constant regions of pKANTEX93; transiently made in FUT8 double-knockout CHO-K1 cells) VH: EVQLVESGGGLVQPGGSMRLSCAASGFTFTDFYMNWIRQPAGKAPEWLGFIRNKANGYTTEFNPSVKGRFTISRDNSKNSLYLQMNSLKTEDTATYYCARCLYGYAYYYVMDAWGQGTLVTVSS VL: DIQMTQSPSSLSASLGDRVTITCRTSEDIFRNLAWYQQKPGKAPQLLIYDTNRLADGVPSRFSGSGSGTDYTLTISSLQPEDFATYFCQQYDNYPLTFGQGTKLEIK | – | – | ~70%
modified humanized RA15-7 antibody HV10LV6 (antibody, human IgG1, V domains shown, Human IgG1 kappa constant regions of pKANTEX93; transiently made in FUT8 double-knockout CHO-K1 cells) VH: EVQLVESGGGLVQPGGSMRLSCAASGFTFTDFYMNWIRQPAGKAPEWLGFIRNKANGYTTEFNPSVKGRFTISRDNSKNSLYLQMNSLKTEDTATYYCARCLYGYAYYYVMDAWGQGTLVTVSS VL: DIQMTQSPSSLSASLGDRVTITCRTSEDIFRNLAWYQQKPGKSPQLLIYDTNRLADGVPSRFSGSGSGTDYTLTISSLQPEDFAGYFCQQYDNYPLTFGQGTKLEIK | – | – | ~70%
modified humanized RA15-7 antibody HV10LV2 (antibody, human IgG1, V domains shown, Human IgG1 kappa constant regions of pKANTEX93; transiently made in FUT8 double-knockout CHO-K1 cells) VH: EVQLVESGGGLVQPGGSMRLSCAASGFTFTDFYMNWIRQPAGKAPEWLGFIRNKANGYTTEFNPSVKGRFTISRDNSKNSLYLQMNSLKTEDTATYYCARCLYGYAYYYVMDAWGQGTLVTVSS VL: DIQMTQSPSSLSASVGDRVTITCRTSEDIFRNLAWYQQKPGKAPQLLIYDTNRLADGVPSRFSGSGSGTDYTLTISSLQPEDFATYYCQQYDNYPLTFGQGTKLEIK | – | – | ~70%
HV7LV3-CDRH3-Cys101 modified antibody C101M (antibody, human IgG1, V domains shown, Human IgG1 kappa constant regions of pKANTEX93; transiently made in FUT8 double-knockout CHO-K1 cells; also called antibody in which Cys101 was modified with Met) VH: EVQLVESGGGLVQPGGSLRLSCAASGFTFTDFYMNWVRQPPGKAPEWLGFIRNKANGYTTEFNPSVKGRFTISRDNSKNSLYLQMNSLKTEDTATYYCARMLYGYAYYYVMDAWGQGTLVTVSS VL: DIQMTQSPSSLSASLGDRVTITCRTSEDIFRNLAWYQQKPGKAPKLLIYDTNRLADGVPSRFSGSGSGTDYTLTISSLQPEDFATYFCQQYDNYPLTFGQGTKLEIK | ≥ 50 % of the affinity of ChRA15-7Acc antibody | 59% | –
HV7LV3-CDRH3-Cys101 modified antibody C101I (antibody, human IgG1, V domains shown, Human IgG1 kappa constant regions of pKANTEX93; transiently made in FUT8 double-knockout CHO-K1 cells; also called antibody in which Cys101 was modified with Ile) VH: EVQLVESGGGLVQPGGSLRLSCAASGFTFTDFYMNWVRQPPGKAPEWLGFIRNKANGYTTEFNPSVKGRFTISRDNSKNSLYLQMNSLKTEDTATYYCARILYGYAYYYVMDAWGQGTLVTVSS VL: DIQMTQSPSSLSASLGDRVTITCRTSEDIFRNLAWYQQKPGKAPKLLIYDTNRLADGVPSRFSGSGSGTDYTLTISSLQPEDFATYFCQQYDNYPLTFGQGTKLEIK | ≥ 50 % of the affinity of ChRA15-7Acc antibody | 73% | –
modified humanized RA15-7 antibody HV10LV3 (antibody, human IgG1, V domains shown, Human IgG1 kappa constant regions of pKANTEX93; transiently made in FUT8 double-knockout CHO-K1 cells) VH: EVQLVESGGGLVQPGGSMRLSCAASGFTFTDFYMNWIRQPAGKAPEWLGFIRNKANGYTTEFNPSVKGRFTISRDNSKNSLYLQMNSLKTEDTATYYCARCLYGYAYYYVMDAWGQGTLVTVSS VL: DIQMTQSPSSLSASLGDRVTITCRTSEDIFRNLAWYQQKPGKAPKLLIYDTNRLADGVPSRFSGSGSGTDYTLTISSLQPEDFATYFCQQYDNYPLTFGQGTKLEIK | – | – | ~70%
